Biological target: T1, soluble oligomeric streptavidin mutein (oligomer of Strep-tactin, n≥3, crosslinked with sulfo-SMCC and … (Streptomyces avidinii, UniProt P22629 38-163, chemically crosslinked with sulfo-SMCC and iminothiolan))
T1 construct: Oligomers of homo-tetramers separated from monomeric and dimeric mutein by size exclusion chromatography; no single molecular weight; also called soluble oligomeric Strep-tactin; oligomeric mutein streptavidin
Assay: mixing of peptide-tagged Fab with soluble oligomeric streptavidin mutein at room temperature

binding result: binds
B1: αCD28 Fab fragment derived from the monoclonal anti-human CD28 antibody CD28.3, heavy chain carboxy-terminally fused to the Twin-Strep-tag (monomeric) (Fab)
heavy (part 1 of 2): LQQSGAELVKPGASVRLSCKASGYTFTEYIIHWIKLRSGQGLEWIGWFYPGSNDIQYNAKFKGKATLTADKSSSTVYMELTGLTSEDSAVYFCARRDDFSGYDALPYWGQGTMVTV
heavy (part 2 of 2): not shown
light: DIQMTQSPASLSVSVGETVTITCRTNENIYSNLAWYQQKQGKSPQLLIYAATHLVEGVPSRFSGSGSGTQYSLKITSLQSEDFGNYYCQHFWGTPCTFGGGTKLEIKR
notes: Recombinantly produced in E. coli; also called anti-CD28 Fab fragment; αCD28 Fab fragment of the antibody 28.3; not shown: human kappa light chain constant domain

Reference: patent US20240191188A1 (JUNO THERAPEUTICS, published 2024)
